We go through nine molecules from patent US5686592, “High-affinity oligonucleotide ligands to immunoglobulin E (IgE)” (NeXstar Pharmaceuticals, Inc.).

For data set [1], the target named is T1, human IgE (Homo sapiens, UniProt P01854-1 P01854-1:1-428). Put plainly: filter; modified PBS, 1 mM Mg2+, 37 C. The following applies: tags: Athens Research Technology, chain copies: 2, label: 5' 32P. How it is done: (§1) Affinities of representative DNA ligands for human IgE were determined by nitrocellulose filter binding experiments and the K_Ds are listed in Table 7. […] Individual clones tested from this pool have affinities in the same range. The affinities were not expected to vary widely since the enriched DNA pool is very homogenous. Ligand D17.0 was picked for truncation experiments. […] However, the affinity could be restored to the level of the full-length ligand by the addition of a 4 basepair stem resulting in the 37 base truncate D17.4. It is possible that the stem in D17.1 is not stable enough to prevent the formation of an alternative secondary structure and that the additional base pair in D17.4 lock in the conformation necessary for IgE binding.

Data set [2] deals with T2, TAN IgE (chimeric: murine light chains and variable region, human heavy-chain constant region) (Mus musculus/Homo sapiens chimera, UniProt P01854-1 P01854-1:1-428).
T2 chain: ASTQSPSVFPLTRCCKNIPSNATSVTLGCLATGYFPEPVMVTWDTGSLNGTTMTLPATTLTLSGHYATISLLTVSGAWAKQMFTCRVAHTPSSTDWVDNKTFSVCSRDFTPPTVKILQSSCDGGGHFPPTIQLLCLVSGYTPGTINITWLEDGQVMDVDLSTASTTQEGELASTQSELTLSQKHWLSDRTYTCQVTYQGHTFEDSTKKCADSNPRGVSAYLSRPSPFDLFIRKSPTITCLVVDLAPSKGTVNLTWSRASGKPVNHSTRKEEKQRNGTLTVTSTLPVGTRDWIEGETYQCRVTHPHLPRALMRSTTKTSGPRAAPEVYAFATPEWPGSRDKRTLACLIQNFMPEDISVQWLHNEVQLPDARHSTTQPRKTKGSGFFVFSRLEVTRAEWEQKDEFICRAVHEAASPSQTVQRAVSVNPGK
Put plainly: inhibition; inhibits IgE binding to FceRI on RBL SX-38 cells, ELISA. The following applies: tags: biotinylated in the receptor assay, gift of Dr. Kinet (NIH), chain copies: 2, label: 5' 32P. How it is done:
A cell-based enzyme linked immunosorbent assay (ELISA) was used to measure the ability of the high-affinity DNA ligands to inhibit binding of IgE to the FcεRI receptor. Rat basophilic leukemia (RBL) cell-line SX-38 which expresses the α, β and γ subunits of the human FcεRI receptor was plated at a concentration of 10^5 cells per well in 96 well flat-bottom microtiter plates. After overnight growth, the cells were washed three times in modified PBS and incubated for one hour at 37° C. in 30 µl of 1.5 µg/ml biotinylated TAN IgE. The cells were washed 3 more times and incubated in 30 µl of 1/100 dilution of horseradish peroxidase (Molecular Probes, Eugene, Oreg.) conjugated to avidin for one hour at 37° C. After three final washes, 30 µl of 3,3',5,5'-tetramethylbenzidine (TMB) substrate, (Kirkegaard and Perry Laboratories, Gaithersburg, Md.) were added as a chromogenic substrate, and the plate was immediately transferred to the microtiter plate reader (Bio-Tek instruments, Winooski, Vt.) for analysis. The absorbance at 630 nm was measured every 60 seconds over a time span of 15 minutes. The rate of color development is an indication of the extent of IgE binding to the FcεRI receptor and was determined from the linear part of absorbance versus time graphs (data not shown). […] The inhibition activities of the RNA ligands were determined using the following formula: […]

Data set [3] deals with T1, human IgE. The experiment in a line: filter; modified PBS, 1 mM Mg2+, 37 C; D11.0 taken as clone D011. The following applies: tags: Athens Research Technology; chain copies: 2; label: 5' 32P.
In data set [4] the target is T1, human IgE. Put plainly: filter; modified PBS, 1 mM Mg2+, 37 C. The following applies: tags: Athens Research Technology; chain copies: 2; label: 32P.
Data set [5] concerns the target T2, TAN IgE (chimeric: murine light chains …). Put plainly: filter; modified PBS, 1 mM Mg2+, 37 C. As to conditions: tags: biotinylated in the receptor assay; gift of Dr. Kinet (NIH); chain copies: 2; label: 32P. How it is done:
To test the specificity of the high-affinity interaction between the RNA ligands and human IgE, binding experiments were performed with different immunoglobulins as described in Example 1.
In order to localize which part of the IgE molecule the RNA ligands are contacting, binding experiments were carried out with a hybrid IgE molecule. The light chains and the variable region of this TAN IgE are murine derived, whereas the constant portion of the heavy chains are human.

The target is the same in data set [6]. Put plainly: inhibition; inhibits IgE binding to FceRI on RBL SX-38 cells, ELISA. The following applies: tags: biotinylated in the receptor assay; gift of Dr. Kinet (NIH); chain copies: 2; label: 32P. How it is done: Rat basophilic leukemia (RBL) cell-line SX-38 which expresses the α, β and γ subunits of the human FcεRI IgE receptor was plated at a concentration of 10^5 cells per well in 96 well flat-bottom microtiter plates. After overnight growth, the cells were washed three times in modified PBS and incubated for one hour at 37° C. in 30 μl of 1.5 μg/ml biotinylated TAN IgE. The cells were washed 3 more times and incubated in 30 μl of 1/100 dilution of horseradish peroxidase conjugated to avidin (Molecular Probes, Eugene, Oreg.) for one hour at 37° C. After three final washes, 30 μl of 3,3',5,5'-tetramethylbenzidine (TMB) substrate (Kirkegaard and Perry Laboratories, Gaithersburg, Md.) were added as a chromogenic substrate and the plate was immediately transferred to the microtiter plate reader (Bio-Tek Instruments, Winooski, Vt.) for analysis. The absorbance at 630 nm was measured every 60 sec over a time span of 15 min. The rate of color development is an indication of the extent of IgE binding to the FcεRI receptor and was determined from the linear part of absorbance versus time graphs (data not shown). […] The inhibition activities of the RNA ligands were determined using the following formula: […]
On the technique in general: An ELISA detects its analyte on a solid surface through an enzyme-linked reagent.

Data set [7] concerns the target T1, human IgE. Put plainly: filter; modified PBS, 1 mM Mg2+, 37 C; D2.0 taken as clone D002. As to conditions: tags: Athens Research Technology; chain copies: 2; label: 5' 32P. How it is done: as §1
Data set [8] concerns the target T1, human IgE. Put plainly: filter; modified PBS, 1 mM Mg2+, 37 C; D31.0 taken as clone D031. As to conditions: tags: Athens Research Technology; chain copies: 2; label: 5' 32P.

Consider CACGTTTATCCGTCCCTCCTAGTGGCGTG (ssDNA) [D17.1], for which the affinity in the data set with human IgE [1] (hairpin), expressed as Kd, was 82 nM.
As for GGGGCACGTTTATCCGTCCCTCCTAGTGGCGTGCCCC (ssDNA) [D17.4], in data set [2] (hairpin), the Ki (in general, the equilibrium dissociation constant of an inhibitor or competing ligand from its target) is ~40 nM. Besides, the affinity with human IgE [1] (hairpin), expressed as Kd, was 10 nM.

B1: D11.0 (ssDNA)
DNA: CTACCTACGATCTGACTAGCACCGGAGTACTTCATCCGTCCCTTCTAGTGGGTACCCGTAGCTTACTCTCATGTAGTTCC
For B1, binding with human IgE [3] was put at a Kd of 8 nM.

B2: D17.0 (ssDNA)
DNA: CTACCTACGATCTGACTAGCCAATGAGTGTACCACGTTTATCCGTCCCTCCTAGTGGCGTGCTTACTCTCATGTAGTTCC
As for B2, in data set [2] (stem-loop), the Ki was ~40 nM. In addition, the dissociation constant Kd (usually the constant that tells how readily two partners part at equilibrium) with human IgE [1] (stem-loop) was found to be 9 nM.
As for GGGAGGACGAUGCGGGUGUGAAUGGUGUUGUGAGG (ssRNA, 2'-NH2 on all C and U) [IGEL1.2], the Kd in the data set with human IgE [4] amounted to 19 nM; in data set [5], 36 nM. Moreover, the affinity in data set [6] corresponds to a Ki of 21 nM.

B3: IGEL4.1 (ssRNA)
RNA: GGGAGGACGAUGCGGACGGUAGUCUGGUAGGCGCUGUGACGGCGAGAAUCCGGACCAGACGACUCGCCCGA
modifications: 2'-NH2 on all C and U
B3 gave a Kd with human IgE [4] of 87 nM.

B4: D2.0 (ssDNA)
DNA: CTACCTACGATCTGACTAGCGGCCGGAGCTTTATCCGTTACTCTCAGTGGGTGACTGTCGCTTACTCTCATGTAGTTCC
Consider B4, for which the Kd with human IgE [7] amounted to 6 nM.

B5: D31.0 (ssDNA)
DNA: CTACCTACGATCTGACTAGCACGGGTGAGTTGATCCGTCACTCTTAGTGGTGAACCTTGTGCTTACTCTCATGTAGTTCC
B5 had a Kd in the data set with human IgE [8] of 22 nM.

B6: IGEL1.1 (ssRNA)
RNA: GGGAGGACGAUGCGGGUGUGAAUGGUGUUGUGAGGUUACUGUACUUCGGUGGCUGCAGACGACUCGCCCGA
modifications: 2'-NH2 on all C and U
B6: the Kd with human IgE [4] worked out at 138 nM; in data set [5], 77 nM. The same molecule returned a Ki in data set [6] of 44 nM.
